B1: Syntaxin-binding protein 4, residues 493 to 538; numbered along this chain, Q6ZWJ1 (parent)
chain: LDMDCLPYGWEEAYTADGIKYFINHVTQTTSWIHPVMSVLNLSRSE

± gives the uncertainty stated by the source.

Variants of B1 are the subject of the data set. As to the kind of experiment: abundance fitness (aPCA) (normalised: wild type 0, dead -1); higher = more abundant; growth selection in yeast, the domain comes from the species named. To be noted: Homo sapiens.
As for A13D, the abundance fitness was -1.11 ± 0.18.
Regarding A13E, the abundance fitness is -0.923 ± 0.11.
With A13P, the abundance fitness is -0.922 ± 0.11.
On to A13Y, for which the abundance fitness was -0.914 ± 0.21.
Turning to A13R, the abundance fitness is -0.501 ± 0.08.
As to A13V, the abundance fitness was -0.686 ± 0.084.
Next, A13S: -0.5 ± 0.088.
For the variant A13N, the abundance fitness is -0.774 ± 0.14.
Next, A13I: -0.998 ± 0.21; A13C: -0.676 ± 0.12; A13F: -0.946 ± 0.19.
In the case of A13H, the abundance fitness is -1.01 ± 0.17.
Take A13G: the abundance fitness was -0.746 ± 0.081.
With A13K, the abundance fitness was -0.534 ± 0.11.
In the case of A13W, the abundance fitness was -0.766 ± 0.11.
Take A13T: the abundance fitness is -0.527 ± 0.11.
Regarding A13Q, the abundance fitness was -0.677 ± 0.13.
The figure for A13L is -0.742 ± 0.091; for D17C it is -0.873 ± 0.12.
The figure for D17Q is -0.571 ± 0.14.
Consider D17F, for which the abundance fitness is -0.942 ± 0.14.
Consider D17W, for which the abundance fitness is -0.835 ± 0.1.
As to D17P, the abundance fitness is -0.867 ± 0.12.
Next, D17K: -0.547 ± 0.1; D17Y: -0.881 ± 0.14; D17H: -0.691 ± 0.18.
Next, D17R: -0.697 ± 0.085; D17A: -0.69 ± 0.11; D17M: -0.88 ± 0.12.
Regarding D17L, the abundance fitness was -0.823 ± 0.093.
As to D17I, the abundance fitness is -0.63 ± 0.11.
Regarding D17N, the abundance fitness was -0.548 ± 0.12.
Next, D17G: -0.76 ± 0.084; D17T: -0.793 ± 0.12.
For the variant D17V, the abundance fitness was -0.648 ± 0.097.
For the variant D17S, the abundance fitness was -0.625 ± 0.09.
With G18I, the abundance fitness is -0.488 ± 0.22.
Turning to G18D, the abundance fitness is -0.576 ± 0.11.
Next, G18M: -0.846 ± 0.14.
Take G18K: the abundance fitness was -0.453 ± 0.12.
In the case of G18E, the abundance fitness is -0.681 ± 0.13.
Consider G18N, for which the abundance fitness is -0.845 ± 0.15.
In the case of G18P, the abundance fitness was -0.834 ± 0.12.
In the case of G18C, the abundance fitness was -0.902 ± 0.12.
The figure for G18H is -0.862 ± 0.22; for E11Y it is -0.909 ± 0.14.
The figure for E11S is -0.433 ± 0.081.
Regarding E11L, the abundance fitness was -0.771 ± 0.089.
Next, E11W: -0.696 ± 0.09; E11Q: -0.4 ± 0.097.
Next, E11C: -0.861 ± 0.11; E11I: -0.502 ± 0.13.
Consider E11A, for which the abundance fitness is -0.747 ± 0.091.
Consider E11F, for which the abundance fitness was -0.555 ± 0.12.
Next, E11G: -0.827 ± 0.082.
Regarding E11H, the abundance fitness is -0.657 ± 0.15.
Turning to E11K, the abundance fitness is -0.535 ± 0.11.
In the case of E11M, the abundance fitness is -0.793 ± 0.11.
Consider E11R, for which the abundance fitness was -0.537 ± 0.077.
The figure for E11D is -0.528 ± 0.11; for E11T it is -0.733 ± 0.1.
As for E11P, the abundance fitness was -0.78 ± 0.11.
As for E11V, the abundance fitness is -0.531 ± 0.083.
The figure for G9R is -0.846 ± 0.088.
Regarding G9H, the abundance fitness was -0.86 ± 0.15.
With G9Y, the abundance fitness is -0.826 ± 0.14.
As to G9I, the abundance fitness is -0.459 ± 0.19.
G9M: the abundance fitness was -0.865 ± 0.12.
With G9L, the abundance fitness is -0.636 ± 0.084.
For G9N, the abundance fitness is -0.849 ± 0.14.
The figure for G9W is -0.699 ± 0.1.
Next, G9Q: -0.908 ± 0.13; G9F: -0.926 ± 0.15.
Consider G9P, for which the abundance fitness was -0.397 ± 0.092.
Turning to G9K, the abundance fitness was -0.807 ± 0.11.
As to G9T, the abundance fitness is -0.833 ± 0.099.
The figure for G9V is -0.692 ± 0.081; for E12P it is -0.795 ± 0.14; for E12W it is -0.744 ± 0.1.
For E12C, the abundance fitness was -0.496 ± 0.1.
As to E12H, the abundance fitness is -0.795 ± 0.17.
Take E12I: the abundance fitness is -0.273 ± 0.13.
On to E12Q, for which the abundance fitness was -0.463 ± 0.12.
As for E12G, the abundance fitness is -0.818 ± 0.083.
Take E12R: the abundance fitness is -0.804 ± 0.081.
Take E12T: the abundance fitness is -0.518 ± 0.1.
On to E12N, for which the abundance fitness was -0.765 ± 0.19.
Consider E12Y, for which the abundance fitness was -0.794 ± 0.18.
Consider E12V, for which the abundance fitness is 0.12 ± 0.08.
The figure for E12S is -0.619 ± 0.093; for E12L it is -0.804 ± 0.099.
For the variant E12F, the abundance fitness is -0.801 ± 0.15.
For E12A, the abundance fitness is -0.767 ± 0.1.
Turning to E12M, the abundance fitness was -0.361 ± 0.12.
With E12D, the abundance fitness was -0.89 ± 0.15.
For E12K, the abundance fitness is -0.953 ± 0.13.
As to W10I, the abundance fitness was -0.596 ± 0.13.
Next, W10N: -0.615 ± 0.15.
The figure for W10T is -0.869 ± 0.11; for W10M it is -0.918 ± 0.13; for W10L it is -0.844 ± 0.092.
W10A: the abundance fitness was -0.667 ± 0.087.
Next, W10Y: -0.774 ± 0.15; W10P: -0.741 ± 0.1; W10R: -0.863 ± 0.083.
On to W10S, for which the abundance fitness was -0.816 ± 0.096.
Turning to W10G, the abundance fitness is -0.716 ± 0.078.
Next, W10C: -1.01 ± 0.14.
W10F: the abundance fitness was -0.796 ± 0.14.
The figure for W10D is -0.68 ± 0.13.
Consider W10Q, for which the abundance fitness is -0.613 ± 0.11.
Next, W10V: -0.651 ± 0.087; Y14N: -0.994 ± 0.17.
Next, Y14Q: -0.305 ± 0.1.
Take Y14W: the abundance fitness is -0.271 ± 0.086.
Next, Y14L: -0.689 ± 0.083.
As for Y14S, the abundance fitness was -0.462 ± 0.08.
As to Y14E, the abundance fitness was -0.513 ± 0.11.
For the variant Y14V, the abundance fitness is -0.411 ± 0.08.
For the variant Y14M, the abundance fitness is -0.614 ± 0.1.
Turning to Y14H, the abundance fitness is -0.575 ± 0.11.
For Y14G, the abundance fitness was -0.773 ± 0.087.
On to Y14P, for which the abundance fitness was -1 ± 0.12.
The figure for Y14T is -0.522 ± 0.1; for Y14A it is -0.645 ± 0.09.
Next, Y14C: -0.586 ± 0.1; Y14F: -0.659 ± 0.14; Y14K: -0.907 ± 0.14.
For Y14D, the abundance fitness was -0.976 ± 0.14.
With Y14I, the abundance fitness is -0.856 ± 0.12.
Regarding Y14R, the abundance fitness is -0.389 ± 0.075.
For T15W, the abundance fitness was -0.814 ± 0.096.
On to T15R, for which the abundance fitness was -0.698 ± 0.077.
Turning to T15H, the abundance fitness was -0.881 ± 0.16.
The figure for T15C is -1 ± 0.14; for T15I it is -0.772 ± 0.1; for T15P it is -0.531 ± 0.093.
In the case of T15E, the abundance fitness was -0.859 ± 0.16.
As to T15N, the abundance fitness is -0.806 ± 0.14.
As for T15Y, the abundance fitness is -0.65 ± 0.13.
Take T15A: the abundance fitness is -0.801 ± 0.1.
Next, T15G: -0.561 ± 0.082; T15S: -0.672 ± 0.085; T15K: -0.938 ± 0.13.
Regarding T15Q, the abundance fitness is -0.706 ± 0.1.
As for T15D, the abundance fitness was -0.509 ± 0.13.
Take T15F: the abundance fitness was -0.883 ± 0.14.
T15V: the abundance fitness is -0.862 ± 0.094.
As for A16F, the abundance fitness was -0.781 ± 0.1.
Turning to A16W, the abundance fitness is -0.901 ± 0.17.
The figure for A16Q is -0.182 ± 0.12; for A16I it is -0.716 ± 0.09; for A16S it is -0.011 ± 0.076.
Turning to A16T, the abundance fitness is -0.408 ± 0.088.
The figure for A16K is 0.211 ± 0.098.
Turning to A16N, the abundance fitness is -0.283 ± 0.088.
The figure for A16H is -0.342 ± 0.091.
Take A16P: the abundance fitness was -0.349 ± 0.096.
The figure for A16M is -0.5 ± 0.12; for A16Y it is -0.606 ± 0.1.
Take A16G: the abundance fitness is -0.445 ± 0.095.
As to A16C, the abundance fitness was -0.555 ± 0.096.
As for A16V, the abundance fitness is -0.57 ± 0.095.
On to A16E, for which the abundance fitness is -0.118 ± 0.15.
Next, A16R: -0.66 ± 0.09.
Next, A16L: -0.649 ± 0.09.
Next, A16D: -0.029 ± 0.1.
